This note sets out measurements from FireProtDB (doi:10.1021/bi9815243).

For this data set the following is noted: whole UniProt chain shown; for denaturant m value / denaturant midpoint (higher = more stable) / unfolding free energy: 25 °C, Urea; for Tm / unfolding enthalpy (van 't Hoff): Thermal.
Setting [1] is: Aspergillus oryzae (strain ATCC 42149 / RIB 40), pH 2.7, CD, glycine 30 mM, reversible: yes (>95%).
Where [2] appears, read: Aspergillus oryzae (strain ATCC 42149 / RIB 40), pH 2.7, Fluorescence, glycine 30 mM, transition: 2, reversible: Yes.
The mark [3] stands for this setting: Aspergillus oryzae (strain ATCC 42149 / RIB 40), pH 7, CD, MOPS 30 mM, reversible: yes (>95%).
Where [4] appears, read: Aspergillus oryzae (strain ATCC 42149 / RIB 40), pH 7, Fluorescence, MOPS 30 mM, transition: 2, reversible: Yes.
The mark [5] stands for this setting: Aspergillus oryzae (strain ATCC 42149 / RIB 40), pH 7, CD, MOPS 30 mM, transition: 2, reversible: Yes.
Where [6] appears, read: Kitasatospora aureofaciens, pH 2, CD, MOPS 30 mM, transition: 2, reversible: Yes.
The mark [7] stands for this setting: Kitasatospora aureofaciens, pH 7, CD, MOPS 30 mM, reversible: yes (>95%).
Where [8] appears, read: Kitasatospora aureofaciens, pH 7, CD, MOPS 30 mM, transition: 2, reversible: Yes.

B1: Guanyl-specific ribonuclease T1 wild type, P00651 (protein)
chain: MMYSKLLTLTTLLLPTALALPSLVERACDYTCGSNCYSSSDVSTAQAAGYQLHEDGETVGSNSYPHKYNNYEGFDFSVSSPYYEWPILSSGDVYSGGSPGADRVVFNENNQLAGVITHTGASGNNFVECT
For the protein B1, under setting [1], the denaturant m value stood at 1.64 kcal/mol/M, the “denaturant midpoint (higher = more stable)” value (“denaturant midpoint” for short) was found to be 3.75 M and the unfolding free energy was 6.13 kcal/mol. Further, under setting [2], the denaturant m value is 1.64 kcal/mol/M, the “denaturant midpoint” value stood at 3.75 M and the unfolding free energy was found to be 6.13 kcal/mol. Moreover, under setting [3], the denaturant m value was 1.17 kcal/mol/M, the “denaturant midpoint” value is 5.2 M, the unfolding free energy was determined as 6.09 kcal/mol and the midpoint of thermal melting (Tm) is 50.8 °C. Moreover, under setting [3], the “unfolding enthalpy (van 't Hoff)” value worked out at 96.6 kcal/mol. Also, under setting [4], the denaturant m value is 1.17 kcal/mol/M, the “denaturant midpoint” value is 5.2 M and the unfolding free energy is 6.09 kcal/mol. In addition, under setting [5], the Tm is 50.8 °C and the “unfolding enthalpy (van 't Hoff)” value is 96.6 kcal/mol.

B2: Guanyl-specific ribonuclease Sa wild type, P05798 (protein)
chain: DVSGTVCLSALPPEATDTLNLIASDGPFPYSQDGVVFQNRESVLPTQSYGYYHEYTVITPGARTRGTRRIITGEATQEDYYTGDHYATFSLIDQTC
Take B2: the Tm stood at 28 °C under setting [6], 48.4 °C under setting [7] and 48.4 °C under setting [8]. The “unfolding enthalpy (van 't Hoff)” value runs as follows: under setting [6], 58.8 kcal/mol; under setting [7], 92.4 kcal/mol; under setting [8], 92.4 kcal/mol.

Usually Tm stands for the temperature at which the thermal transition is half complete.
